# Laboratory results: US20260152553A1 (LYELL IMMUNOPHARMA, published 2026)
# T1: CD19 (human, UniProt P15391 20-556)
# T1 sequence (looked up): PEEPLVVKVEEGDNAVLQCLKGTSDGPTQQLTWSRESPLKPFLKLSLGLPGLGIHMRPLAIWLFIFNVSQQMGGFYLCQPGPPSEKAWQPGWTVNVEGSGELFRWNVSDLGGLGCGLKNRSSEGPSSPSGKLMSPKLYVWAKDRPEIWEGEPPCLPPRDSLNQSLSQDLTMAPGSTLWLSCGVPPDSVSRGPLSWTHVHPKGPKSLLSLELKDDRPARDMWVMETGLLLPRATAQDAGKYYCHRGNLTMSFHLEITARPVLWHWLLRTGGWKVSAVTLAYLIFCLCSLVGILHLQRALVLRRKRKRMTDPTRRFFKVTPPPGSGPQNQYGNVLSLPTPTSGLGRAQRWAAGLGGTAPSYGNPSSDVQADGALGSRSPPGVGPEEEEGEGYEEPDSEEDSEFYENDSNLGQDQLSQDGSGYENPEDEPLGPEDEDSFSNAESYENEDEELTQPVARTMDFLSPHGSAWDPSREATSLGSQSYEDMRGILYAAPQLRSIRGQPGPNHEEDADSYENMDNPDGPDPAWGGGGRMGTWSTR
# B1: CD19/CD20 bispecific CAR (Leu16 scFv-(G4S)4-FMC63 scFv-IgG4 hinge-CD28 TM-4-1BB-CD3 zeta) (other)
# chain: DIVLTQSPAILSASPGEKVTMTCRASSSVNYMDWYQKKPGSSPKPWIYATSNLASGVPARFSGSGSGTSYSLTISRVEAEDAATYYCQQWSFNPPTFGGGTKLEIKGSTSGGGSGGGSGGGGSSEVQLQQSGAELVKPGASVKMSCKASGYTFTSYNMHWVKQTPGQGLEWIGAIYPGNGDTSYNQKFKGKATLTADKSSSTAYMQLSSLTSEDSADYYCARSNYYGSSYWFFDVWGAGTTVTVSSGGGGSGGGGSGGGGSGGGGSEVKLQESGPGLVAPSQSLSVTCTVSGVSLPDYGVSWIRQPPRKGLEWLGVIWGSETTYYNSALKSRLTIIKDNSKSQVFLKMNSLQTDDTAIYYCAKHYYYGGSYAMDYWGQGTSVTVSSGSTSGSGKPGSGEGSTKGDIQMTQTTSSLSASLGDRVTISCRASQDISKYLNWYQQKPDGTVKLLIYHTSRLHSGVPSRFSGSGSGTDYSLTISNLEQEDIATYFCQQGNTLPYTFGGGTKLEITESKYGPPCPPCPMFWVLVVVGGVLACYSLLVTVAFIIFWVKRGRKKLLYIFKQPFMRPVQTTQEEDGCSCRFPEEEEGGCELRVKFSRSADAPAYQQGQNQLYNELNLGRREEYDVLDKRRGRDPEMGGKPRRKNPQEGLYNELQKDKMAEAYSEIGMKGERRRGKGHDGLYQGLSTATKDTYDALHMQALPPR
# B2: CD20 Protein-Biotin (Acros) (other, UniProt P11836 1-297, looked up)
# chain: MTTPRNSVNGTFPAEPMKGPIAMQSGPKPLFRRMSSLVGPTQSFFMRESKTLGAVQIMNGLFHIALGGLLMIPAGIYAPICVTVWYPLWGGIMYIISGSLLAATEKNSRKCLVKGKMIMNSLSLFAAISGMILSIMDILNIKISHFLKMESLNFIRAHTPYINIYNCEPANPSEKNSPSTQYCYSIQSLFLGILSVMLIFAFFQELVIAGIVENEWKRTCSRPKSNIVLLSAEEKKEQTIEIKEEVVGLTETSSQPKNEEDIEIIPIQEEEEEETETNFPEPPQDQESSPIENDSSP
# modifications: biotin (site not stated)
# notes: Bought detection reagent; construct not described
# What was measured:
# [1] = biological target: T1, CD19; experiment: cell-based or functional assay
# [2] = biological target: B1; experiment: flow cytometry, staining of T cells (donor 1917) transduced with CD19/20 CAR lentiviral vector
# Source text: Direct Detection of CAR+ cells by Flow Cytometry. Direct measurement was used to detect expression of CD 19/20 CAR. Because quantification of a tEGFR protein may not provide an accurate measurement of surface CAR expression, tEGFR was removed from the Lentiviral vector as described herein, and instead utilized antibodies which bound to the scFv domains of the CD19/20 CAR protein to report surface CAR expression.
"IFN-γ and IL-2 production, 1:1 effector:target cell ratio or greater, 24 hours, target cells lacking CD20 [1]",% Positive Cells [2] [%],Binder
> 1000,,B1
,68.1,B2
